From patent US20050147555A1
Positions of bridges follow the written chain, without caps; N, C: chain ends. Groups on a side chain read outwards from the residue. *: point of attachment. Biotin = O=C1N[C@H]2[C@H](CS[C@H]2CCCCC(=O)*)N1; AEEA = NCCOCCOCC(=O)O

Target: KDR (VEGFR-2, Flk-1), full-length receptor on cells (human), P35968
Assay: competition with 125I-VEGF on KDR-transfected 293H cells
Conditions: remark: other sources report otherwise

KDR (VEGFR-2, Flk-1), full-length receptor on cells (human), P35968, sequence (P35968 20-1356): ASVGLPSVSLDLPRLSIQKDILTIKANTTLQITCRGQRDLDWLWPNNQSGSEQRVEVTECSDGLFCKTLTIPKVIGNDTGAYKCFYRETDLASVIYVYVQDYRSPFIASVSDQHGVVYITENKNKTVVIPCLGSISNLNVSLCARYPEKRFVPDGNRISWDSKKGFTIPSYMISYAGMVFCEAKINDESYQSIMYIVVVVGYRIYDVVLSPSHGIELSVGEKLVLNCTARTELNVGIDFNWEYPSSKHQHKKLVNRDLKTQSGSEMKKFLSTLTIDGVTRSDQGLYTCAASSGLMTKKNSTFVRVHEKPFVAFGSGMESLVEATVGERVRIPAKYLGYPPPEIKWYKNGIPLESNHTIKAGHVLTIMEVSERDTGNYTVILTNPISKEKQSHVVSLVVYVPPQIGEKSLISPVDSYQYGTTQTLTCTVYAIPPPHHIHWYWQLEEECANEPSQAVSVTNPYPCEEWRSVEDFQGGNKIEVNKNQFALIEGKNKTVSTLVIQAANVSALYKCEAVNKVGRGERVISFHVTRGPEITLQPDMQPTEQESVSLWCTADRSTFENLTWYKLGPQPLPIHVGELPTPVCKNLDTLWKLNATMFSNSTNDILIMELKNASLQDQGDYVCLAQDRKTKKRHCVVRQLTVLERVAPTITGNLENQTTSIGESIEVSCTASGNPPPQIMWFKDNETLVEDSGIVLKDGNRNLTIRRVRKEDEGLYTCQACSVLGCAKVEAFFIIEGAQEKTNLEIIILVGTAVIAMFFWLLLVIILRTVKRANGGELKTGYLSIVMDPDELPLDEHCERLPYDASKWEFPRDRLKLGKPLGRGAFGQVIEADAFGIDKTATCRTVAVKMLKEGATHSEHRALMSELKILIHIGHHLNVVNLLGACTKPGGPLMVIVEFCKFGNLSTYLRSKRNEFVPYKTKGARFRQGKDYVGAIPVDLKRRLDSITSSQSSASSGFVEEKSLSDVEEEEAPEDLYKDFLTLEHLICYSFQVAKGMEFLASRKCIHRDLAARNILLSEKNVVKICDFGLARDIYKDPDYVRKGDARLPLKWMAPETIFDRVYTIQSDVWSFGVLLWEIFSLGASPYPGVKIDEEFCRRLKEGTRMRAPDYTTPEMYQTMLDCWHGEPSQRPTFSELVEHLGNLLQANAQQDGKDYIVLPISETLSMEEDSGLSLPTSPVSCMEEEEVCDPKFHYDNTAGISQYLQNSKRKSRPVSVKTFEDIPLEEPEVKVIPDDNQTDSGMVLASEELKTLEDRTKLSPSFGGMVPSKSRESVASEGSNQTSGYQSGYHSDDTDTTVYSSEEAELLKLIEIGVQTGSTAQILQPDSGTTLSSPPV

% inhibition of 125I-VEGF binding at 0.3 µM: 24.4% | % inhibition of 125I-VEGF binding at 30 µM: 48%
B1: P5-XB (peptide)
peptide: Ac-AGPKWCEEDWYYCMITGTGGGK([AEEA-AEEA-Biotin])-NH2
modifications: disulfide 6-13
SMILES: CC[C@H](C)[C@H](NC(=O)[C@H](CCSC)NC(=O)[C@@H]1CSSC[C@H](NC(=O)[C@H](Cc2c[nH]c3ccccc23)NC(=O)[C@H](CCCCN)NC(=O)[C@@H]2CCCN2C(=O)CNC(=O)[C@H](C)NC(C)=O)C(=O)N[C@@H](CCC(=O)O)C(=O)N[C@@H](CCC(=O)O)C(=O)N[C@@H](CC(=O)O)C(=O)N[C@@H](Cc2c[nH]c3ccccc23)C(=O)N[C@@H](Cc2ccc(O)cc2)C(=O)N[C@@H](Cc2ccc(O)cc2)C(=O)N1)C(=O)N[C@H](C(=O)NCC(=O)N[C@H](C(=O)NCC(=O)NCC(=O)NCC(=O)N[C@@H](CCCCNC(=O)COCCOCCNC(=O)COCCOCCNC(=O)CCCC[C@@H]1SC[C@@H]2NC(=O)N[C@@H]21)C(N)=O)[C@@H](C)O)[C@@H](C)O
